Assay results: patent US20260167699A1 (Chugai, published 2026)

Key:
FcγRIIIaV = molecular target: T1, FcγRIIIaV (human, UniProt P08637 17-208); assay: SPR (Biacore), antibody captured, FcγR as analyte, 1:1 Langmuir fit
T1 construct: extracellular domain

FcγRIIIa [1] = molecular target: T2, FcγRIIIa (human, UniProt P08637 17-208); assay: SPR (Biacore T100), antibody captured on protein L chip, FcγRIIIa as analyte, TBS(+), 25 C, 1:1 Langmuir fit
T2 construct: extracellular domain; also called 3a
T2 sequence (P08637 other isoform, or with tags, fused parts or gaps): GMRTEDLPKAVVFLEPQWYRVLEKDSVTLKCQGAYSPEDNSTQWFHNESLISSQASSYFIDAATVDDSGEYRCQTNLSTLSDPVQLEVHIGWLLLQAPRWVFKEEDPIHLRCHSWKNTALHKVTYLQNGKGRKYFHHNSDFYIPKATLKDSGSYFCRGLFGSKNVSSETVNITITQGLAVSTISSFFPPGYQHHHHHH
Method: Specifically, their interaction with FcγRIIIa was analyzed using BiaCore™ T100 surface plasmon resonance system (GE Healthcare Japan Corp.). The running buffer used was the TBS(+) solution used in the preceding paragraph. The assay temperature was set to 25° C. Protein L was immobilized onto Series S Sensor Chip CM4 (GE Healthcare Japan Corp.) by the amine coupling method to prepare a chip. Each antibody of interest was captured onto the protein L-immobilized chip and allowed to interact with FcγRIIIa diluted with a running buffer. The antibody captured on the chip was washed off through the reaction of 10 mM glycine-HCl (pH 1.5) to regenerate the chip, which was repetitively used.
Each antibody was evaluated for its binding activity against FcγRIIIa with binding activity against FcγRIIIa and dissociation constant for FcγRIIIa as main indexes. […] Specifically, a sensorgram obtained by assay using BiaCore™ surface plasmon resonance Evaluation Software was globally fit into the 1:1 Langmuir model to calculate an association rate constant ka (L/mol/s) and a dissociation rate constant kd (1/s). From these values, the dissociation constant KD (mol/L) was calculated.

FcγRIIb = molecular target: T3, FcγRIIb (human, UniProt P31994 43-217); assay: SPR, relative to GpH7-A5/GpH7-B3/GpL16-k0 =100
T3 construct: extracellular domain; also called 2b
T3 sequence: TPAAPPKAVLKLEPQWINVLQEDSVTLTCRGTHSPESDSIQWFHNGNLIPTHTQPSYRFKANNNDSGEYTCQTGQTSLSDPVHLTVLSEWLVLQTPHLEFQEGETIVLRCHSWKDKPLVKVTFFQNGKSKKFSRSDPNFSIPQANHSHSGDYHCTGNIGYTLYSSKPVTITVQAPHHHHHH

FcγRIIa(R) = molecular target: T4, FcγRIIa(R) (human, UniProt P12318 34-217); assay: SPR, relative to GpH7-A5/GpH7-B3/GpL16-k0 =100
T4 construct: extracellular domain; also called 2aR
T4 sequence: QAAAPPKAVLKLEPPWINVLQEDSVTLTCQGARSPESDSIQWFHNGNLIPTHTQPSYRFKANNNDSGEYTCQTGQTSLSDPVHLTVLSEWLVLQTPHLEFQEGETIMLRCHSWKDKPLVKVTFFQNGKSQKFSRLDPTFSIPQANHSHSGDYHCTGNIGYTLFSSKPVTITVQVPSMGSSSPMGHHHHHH

FcγRIIa(H) = molecular target: T5, FcγRIIa(H) (human, UniProt P12318 34-217); assay: SPR, relative to GpH7-A5/GpH7-B3/GpL16-k0 =100
T5 construct: extracellular domain; also called 2aH
T5 sequence: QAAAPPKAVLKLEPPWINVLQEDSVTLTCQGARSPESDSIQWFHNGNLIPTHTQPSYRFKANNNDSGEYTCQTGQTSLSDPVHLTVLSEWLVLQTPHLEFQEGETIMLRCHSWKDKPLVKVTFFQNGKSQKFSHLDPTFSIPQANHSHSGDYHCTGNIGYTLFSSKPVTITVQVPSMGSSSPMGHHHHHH

FcγRIIIa [2] = molecular target: T6, FcγRIIIa (human, UniProt P08637 17-208); assay: SPR, relative to GpH7-A5/GpH7-B3/GpL16-k0 =100
T6 construct: extracellular domain; also called 3a

FcγRIa = molecular target: T7, FcγRIa (human, UniProt P12314 16-292); assay: SPR, relative to GpH7-A5/GpH7-B3/GpL16-k0 =100
T7 construct: extracellular domain; also called 1a
T7 sequence (P12314 other isoform, or with tags, fused parts or gaps): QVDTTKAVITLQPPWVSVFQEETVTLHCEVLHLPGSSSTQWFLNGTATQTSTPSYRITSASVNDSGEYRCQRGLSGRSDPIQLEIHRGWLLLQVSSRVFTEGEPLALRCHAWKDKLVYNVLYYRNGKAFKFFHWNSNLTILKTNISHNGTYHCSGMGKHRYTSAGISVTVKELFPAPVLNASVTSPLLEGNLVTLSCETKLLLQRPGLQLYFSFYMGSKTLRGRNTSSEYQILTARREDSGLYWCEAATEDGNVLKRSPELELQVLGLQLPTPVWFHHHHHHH

T1 sequence (P08637 other isoform, or with tags, fused parts or gaps): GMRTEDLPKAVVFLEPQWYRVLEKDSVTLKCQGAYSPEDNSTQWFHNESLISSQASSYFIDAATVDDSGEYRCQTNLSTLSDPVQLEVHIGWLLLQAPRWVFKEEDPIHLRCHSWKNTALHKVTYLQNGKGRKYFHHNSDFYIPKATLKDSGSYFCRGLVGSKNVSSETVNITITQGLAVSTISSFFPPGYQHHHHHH

B1: H240-G1dE/H240-G1dE/L73 (antibody, human IgG1, kappa)
heavy: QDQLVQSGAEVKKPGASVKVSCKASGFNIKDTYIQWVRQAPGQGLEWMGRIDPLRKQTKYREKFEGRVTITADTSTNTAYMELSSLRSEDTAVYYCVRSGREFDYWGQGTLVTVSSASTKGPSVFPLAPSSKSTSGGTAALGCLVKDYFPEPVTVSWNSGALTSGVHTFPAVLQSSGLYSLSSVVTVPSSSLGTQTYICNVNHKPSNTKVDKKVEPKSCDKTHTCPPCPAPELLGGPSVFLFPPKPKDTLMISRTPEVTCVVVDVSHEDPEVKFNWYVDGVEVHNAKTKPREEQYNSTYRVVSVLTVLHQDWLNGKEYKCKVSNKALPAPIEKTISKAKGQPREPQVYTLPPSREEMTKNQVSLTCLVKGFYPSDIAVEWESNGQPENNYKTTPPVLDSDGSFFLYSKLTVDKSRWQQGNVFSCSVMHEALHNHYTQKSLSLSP
light: DIQMTQSPSSLSASVGDRVTITCRASQDIHKYIAWYQQKPGQAPRLLIQYTSTLQPGVPSRFSGSGSGTDYTFTISSLQPEDIATYYCLQYEQLRTFGGGTKVEIKRTVAAPSVFIFPPSDEQLKSGTASVVCLLNNFYPREAKVQWKVDNALQSGNSQESVTEQDSKDSTYSLSSTLTLSKADYEKHKVYACEVTHQGLSSPVTKSFNRGEC
notes: anti-EREG antibody with constant regions derived from human natural IgG1; also called IgG1; naturally occurring IgG1
With B1 the Kd (FcγRIIIaV) was 340 nM and the Kd (FcγRIIIa [1]) was 290 nM.

B2: H240-Kn125/H240-Hl076-ma1/L73 (antibody, human IgG1, kappa)
heavy 1: QDQLVQSGAEVKKPGASVKVSCKASGFNIKDTYIQWVRQAPGQGLEWMGRIDPLRKQTKYREKFEGRVTITADTSTNTAYMELSSLRSEDTAVYYCVRSGREFDYWGQGTLVTVSSASTKGPSVFPLAPSSKSTSGGTAALGCLVKDYFPEPVTVSWNSGALTSGVHTFPAVLQSSGLYSLSSVVTVPSSSLGTQTYICNVNHKPSNTKVDKKVEPKSCDKTHTCPPCPAPELLGGPSVFLFPPKPKDTLMISRTPEVTCVVVDVSGCRGDCLEPEVKFNWYVDGVEVHNAKTKPREEQYNSTYRVVSVLTVLHQDWLNGKEYKCKVSNDALPMPIEETISKAKGQPREPQVYTLPPSRCELTKNQVSLSCAVKGFYPSDIAVEWESNGQPENNYKTTPPVLDSDGSFFLVSKLTVDKSRWQQGNVFSCSVMHEALHNHYTQKSLSLSP
heavy 2: QDQLVQSGAEVKKPGASVKVSCKASGFNIKDTYIQWVRQAPGQGLEWMGRIDPLRKQTKYREKFEGRVTITADTSTNTAYMELSSLRSEDTAVYYCVRSGREFDYWGQGTLVTVSSASTKGPSVFPLAPSSKSTSGGTAALGCLVKDYFPEPVTVSWNSGALTSGVHTFPAVLQSSGLYSLSSVVTVPSSSLGTQTYICNVNHKPSNTKVDKKVEPKSCDKTHTCPPCPAPEYQWGPMVFLFPPKPKDTLMISRTPEVTCVVVDVSDEEPEVKFNWYVDGVEVHNAKTKPREEQYNATYRVVSVLTVLHQDWLNGKEYKCKVSNKALPAPIEKTISKAKGQPREPQVCTLPPSRDELTKNQVSLWCLVKGFYPSDIAVEWESNGQPENNYKTTPPVLDSDGSFFLYSKLTVDKSRWQQGNVFSCSVMHEALHNHYTQKSLSLSP
light: DIQMTQSPSSLSASVGDRVTITCRASQDIHKYIAWYQQKPGQAPRLLIQYTSTLQPGVPSRFSGSGSGTDYTFTISSLQPEDIATYYCLQYEQLRTFGGGTKVEIKRTVAAPSVFIFPPSDEQLKSGTASVVCLLNNFYPREAKVQWKVDNALQSGNSQESVTEQDSKDSTYSLSSTLTLSKADYEKHKVYACEVTHQGLSSPVTKSFNRGEC
notes: heterodimerized anti-EREG antibody with the RGD peptide inserted in a loop region of the H240-Hl076 chain; also called H240-Kn125/H240-HI076-ma1/L73
With B2 the Kd (FcγRIIIa [1]) was 2.1 nM.

B3: H240-G1d-CD/H240-G1d-CD/L73 (antibody, human IgG1, kappa)
heavy: QDQLVQSGAEVKKPGASVKVSCKASGFNIKDTYIQWVRQAPGQGLEWMGRIDPLRKQTKYREKFEGRVTITADTSTNTAYMELSSLRSEDTAVYYCVRSGREFDYWGQGTLVTVSSASTKGPSVFPLAPSSKSTSGGTAALGCLVKDYFPEPVTVSWNSGALTSGVHTFPAVLQSSGLYSLSSVVTVPSSSLGTQTYICNVNHKPSNTKVDKKVEPKSCDKTHTCPPCPAPELLGGPSVFLFPPKPKDTLMISRTPEVTCVVVDVSHEDPEVKFNWYVDGVEVHNAKTKPREEQYNSTYRVVSVLTVLHQDWLNGKEYKCKVSNKALPAPIEKTISKAKGQPREPQVYTLPPSRDELTKNQVSLTCLVKGFYPSDIAVEWESGCRGDCLPENNYKTTPPVLDSDGSFFLYSKLTVDKSRWQQGNVFSCSVMHEALHNHYTQKSLSLSP
light: DIQMTQSPSSLSASVGDRVTITCRASQDIHKYIAWYQQKPGQAPRLLIQYTSTLQPGVPSRFSGSGSGTDYTFTISSLQPEDIATYYCLQYEQLRTFGGGTKVEIKRTVAAPSVFIFPPSDEQLKSGTASVVCLLNNFYPREAKVQWKVDNALQSGNSQESVTEQDSKDSTYSLSSTLTLSKADYEKHKVYACEVTHQGLSSPVTKSFNRGEC
notes: anti-EREG antibody with the RGD peptide inserted in the CH3 regions (control)
B3 gave a Kd (FcγRIIIa [1]) of 310 nM.

B4: H240-Kn125-CD/H240-Hl076/L73 (antibody, human IgG1, kappa)
heavy 1: QDQLVQSGAEVKKPGASVKVSCKASGFNIKDTYIQWVRQAPGQGLEWMGRIDPLRKQTKYREKFEGRVTITADTSTNTAYMELSSLRSEDTAVYYCVRSGREFDYWGQGTLVTVSSASTKGPSVFPLAPSSKSTSGGTAALGCLVKDYFPEPVTVSWNSGALTSGVHTFPAVLQSSGLYSLSSVVTVPSSSLGTQTYICNVNHKPSNTKVDKKVEPKSCDKTHTCPPCPAPELLGGPSVFLFPPKPKDTLMISRTPEVTCVVVDVSHEEPEVKFNWYVDGVEVHNAKTKPREEQYNSTYRVVSVLTVLHQDWLNGKEYKCKVSNDALPMPIEETISKAKGQPREPQVYTLPPSRCELTKNQVSLSCAVKGFYPSDIAVEWESNGQPENNYKTTPPVLDSDGSFFLVSKLTVDKSRWQQGNVFSCSVMHEALHNHYTQKSLSLSP
heavy 2: QDQLVQSGAEVKKPGASVKVSCKASGFNIKDTYIQWVRQAPGQGLEWMGRIDPLRKQTKYREKFEGRVTITADTSTNTAYMELSSLRSEDTAVYYCVRSGREFDYWGQGTLVTVSSASTKGPSVFPLAPSSKSTSGGTAALGCLVKDYFPEPVTVSWNSGALTSGVHTFPAVLQSSGLYSLSSVVTVPSSSLGTQTYICNVNHKPSNTKVDKKVEPKSCDKTHTCPPCPAPEYQWGPMVFLFPPKPKDTLMISRTPEVTCVVVDVSDEEPEVKFNWYVDGVEVHNAKTKPREEQYNATYRVVSVLTVLHQDWLNGKEYKCKVSNKALPAPIEKTISKAKGQPREPQVCTLPPSRDELTKNQVSLWCLVKGFYPSDIAVEWESGCRGDCLPENNYKTTPPVLDSDGSFFLYSKLTVDKSRWQQGNVFSCSVMHEALHNHYTQKSLSLSP
light: DIQMTQSPSSLSASVGDRVTITCRASQDIHKYIAWYQQKPGQAPRLLIQYTSTLQPGVPSRFSGSGSGTDYTFTISSLQPEDIATYYCLQYEQLRTFGGGTKVEIKRTVAAPSVFIFPPSDEQLKSGTASVVCLLNNFYPREAKVQWKVDNALQSGNSQESVTEQDSKDSTYSLSSTLTLSKADYEKHKVYACEVTHQGLSSPVTKSFNRGEC
notes: heterodimerized anti-EREG antibody with the RGD peptide inserted in a CH3 region (control); also called H240-Kn125-CD/H240-HI076/L73
B4 was tested, and the Kd (FcγRIIIa [1]) was 0.85 nM.

B5: H240-Kn125-ma1/H240-Hl076/L73 (antibody, human IgG1, kappa)
heavy 1: QDQLVQSGAEVKKPGASVKVSCKASGFNIKDTYIQWVRQAPGQGLEWMGRIDPLRKQTKYREKFEGRVTITADTSTNTAYMELSSLRSEDTAVYYCVRSGREFDYWGQGTLVTVSSASTKGPSVFPLAPSSKSTSGGTAALGCLVKDYFPEPVTVSWNSGALTSGVHTFPAVLQSSGLYSLSSVVTVPSSSLGTQTYICNVNHKPSNTKVDKKVEPKSCDKTHTCPPCPAPELLGGPSVFLFPPKPKDTLMISRTPEVTCVVVDVSHEEPEVKFNWYVDGVEVHNAKTKPREEQYNSTYRVVSVLTVLHQDWLNGKEYKCKVSNDALPMPIEETISKAKGQPREPQVYTLPPSRCELTKNQVSLSCAVKGFYPSDIAVEWESNGQPENNYKTTPPVLDSDGSFFLVSKLTVDKSRWQQGNVFSCSVMHEALHNHYTQKSLSLSP
heavy 2: QDQLVQSGAEVKKPGASVKVSCKASGFNIKDTYIQWVRQAPGQGLEWMGRIDPLRKQTKYREKFEGRVTITADTSTNTAYMELSSLRSEDTAVYYCVRSGREFDYWGQGTLVTVSSASTKGPSVFPLAPSSKSTSGGTAALGCLVKDYFPEPVTVSWNSGALTSGVHTFPAVLQSSGLYSLSSVVTVPSSSLGTQTYICNVNHKPSNTKVDKKVEPKSCDKTHTCPPCPAPEYQWGPMVFLFPPKPKDTLMISRTPEVTCVVVDVSGCRGDCLEPEVKFNWYVDGVEVHNAKTKPREEQYNATYRVVSVLTVLHQDWLNGKEYKCKVSNKALPAPIEKTISKAKGQPREPQVCTLPPSRDELTKNQVSLWCLVKGFYPSDIAVEWESNGQPENNYKTTPPVLDSDGSFFLYSKLTVDKSRWQQGNVFSCSVMHEALHNHYTQKSLSLSP
light: DIQMTQSPSSLSASVGDRVTITCRASQDIHKYIAWYQQKPGQAPRLLIQYTSTLQPGVPSRFSGSGSGTDYTFTISSLQPEDIATYYCLQYEQLRTFGGGTKVEIKRTVAAPSVFIFPPSDEQLKSGTASVVCLLNNFYPREAKVQWKVDNALQSGNSQESVTEQDSKDSTYSLSSTLTLSKADYEKHKVYACEVTHQGLSSPVTKSFNRGEC
notes: heterodimerized anti-EREG antibody with the RGD peptide inserted in a loop region of the H240-Kn125 chain; also called H240-Kn125-ma1/H240-HI076/L73
B5 was tested, and the Kd (FcγRIIIa [1]) was 160 nM.

B6: GpH7-A5/GpH7-B3 variant A327_01G/GpL16-k0 (antibody, human IgG1, kappa)
heavy 1: not shown
heavy 2: not shown
light: DIVMTQSPLSLPVTPGEPASISCQASESLVHSNRNTYLHWYLQKPGQSPQLLIYKVSNRFSGVPDRFSGSGSGTDFTLKISRVEAEDVGVYYCSQNTHVPPTFGQGTKVEIERTVAAPSVFIFPPSDEQLKSGTASVVCLLNNFYPREAKVQWKVDNALQSGNSQESVTEQDSKDSTYSLSSTLTLSKADYEKHKVYACEVTHQGLSSPVTKSFNRGEC
notes: He Ab: heterodimerized IgG1, one H chain mutated
With B6 the “He/Con 2b” value (FcγRIIb) was 144%, the “He/Con 2aR” value (FcγRIIa(R)) was 126% and the “He/Con 2aH” value (FcγRIIa(H)) was 115%. For the same binder, the “He/Con 3a” value (FcγRIIIa [2]) was 74.4% and the “He/Con 1a” value (FcγRIa) was 101%.

B7: GpH7-A5/GpH7-B3 variant L328_10E/GpL16-k0 (antibody, human IgG1, kappa)
heavy 1: not shown
heavy 2: not shown
light: DIVMTQSPLSLPVTPGEPASISCQASESLVHSNRNTYLHWYLQKPGQSPQLLIYKVSNRFSGVPDRFSGSGSGTDFTLKISRVEAEDVGVYYCSQNTHVPPTFGQGTKVEIERTVAAPSVFIFPPSDEQLKSGTASVVCLLNNFYPREAKVQWKVDNALQSGNSQESVTEQDSKDSTYSLSSTLTLSKADYEKHKVYACEVTHQGLSSPVTKSFNRGEC
notes: as for B6
In the case of B7, the “He/Con 2b” value (FcγRIIb) is reported as 215%, the “He/Con 2aR” value (FcγRIIa(R)) is reported as 136% and the “He/Con 2aH” value (FcγRIIa(H)) is reported as 65.7%. The “He/Con 3a” value (FcγRIIIa [2]) was 54.9% and the “He/Con 1a” value (FcγRIa) was 104%.
